Results from publication PMC4005650.

Legend:
[1] = target: T1, LtrA, intron-encoded protein (IEP) of the Lactococcus lactis Ll.LtrB group II intron (Lactococcus lactis), P0A3U0; test: AUC; sedimentation velocity of purified +A RNP at 7-14 ng/µl; 4°C; 28 000 rpm; 20 mM Tris pH 7.4, 200 mM KCl, 5 mM MgCl2; absorbance at 260 nm; SEDFIT; details: remark: other sources report otherwise
T1 chain: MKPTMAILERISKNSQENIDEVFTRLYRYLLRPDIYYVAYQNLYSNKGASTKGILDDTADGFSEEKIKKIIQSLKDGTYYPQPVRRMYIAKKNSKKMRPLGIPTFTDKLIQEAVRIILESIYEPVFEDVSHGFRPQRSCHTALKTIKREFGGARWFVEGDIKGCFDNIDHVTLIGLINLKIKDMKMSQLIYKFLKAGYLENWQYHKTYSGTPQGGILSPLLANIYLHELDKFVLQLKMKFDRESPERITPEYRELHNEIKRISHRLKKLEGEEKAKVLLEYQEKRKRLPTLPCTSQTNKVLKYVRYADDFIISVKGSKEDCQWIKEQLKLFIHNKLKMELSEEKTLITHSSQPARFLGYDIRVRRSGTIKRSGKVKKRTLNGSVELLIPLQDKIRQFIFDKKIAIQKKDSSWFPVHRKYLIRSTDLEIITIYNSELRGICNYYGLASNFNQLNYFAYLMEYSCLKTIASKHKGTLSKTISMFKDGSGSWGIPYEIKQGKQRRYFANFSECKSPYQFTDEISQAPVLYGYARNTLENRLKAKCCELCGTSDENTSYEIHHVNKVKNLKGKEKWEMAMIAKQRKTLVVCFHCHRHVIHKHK

[2] = target: T1, LtrA, intron-encoded protein (IEP) of …; test: SEC-MALS; purified +A RNP (LtrA with 902 nt intron lariat RNA) on Superdex 200 10/300 GL; 20 mM Tris pH 7.4, 200 mM KCl, 5 mM MgCl2; room temperature; mass-averaged dn/dc 0.182 ml/g; details: remark: other sources report otherwise

stoichiometry N [1]: 2
stoichiometry N [2]: 2
B1: LtrA, intron-encoded protein (IEP) of the Lactococcus lactis Ll.LtrB group II intron, P0A3U0 1-599 (natural protein)
chain: MKPTMAILERISKNSQENIDEVFTRLYRYLLRPDIYYVAYQNLYSNKGASTKGILDDTADGFSEEKIKKIIQSLKDGTYYPQPVRRMYIAKKNSKKMRPLGIPTFTDKLIQEAVRIILESIYEPVFEDVSHGFRPQRSCHTALKTIKREFGGARWFVEGDIKGCFDNIDHVTLIGLINLKIKDMKMSQLIYKFLKAGYLENWQYHKTYSGTPQGGILSPLLANIYLHELDKFVLQLKMKFDRESPERITPEYRELHNEIKRISHRLKKLEGEEKAKVLLEYQEKRKRLPTLPCTSQTNKVLKYVRYADDFIISVKGSKEDCQWIKEQLKLFIHNKLKMELSEEKTLITHSSQPARFLGYDIRVRRSGTIKRSGKVKKRTLNGSVELLIPLQDKIRQFIFDKKIAIQKKDSSWFPVHRKYLIRSTDLEIITIYNSELRGICNYYGLASNFNQLNYFAYLMEYSCLKTIASKHKGTLSKTISMFKDGSGSWGIPYEIKQGKQRRYFANFSECKSPYQFTDEISQAPVLYGYARNTLENRLKAKCCELCGTSDENTSYEIHHVNKVKNLKGKEKWEMAMIAKQRKTLVVCFHCHRHVIHKHK
